Positions count from the first letter of the chain named.

Among the data in patent US20220275098A1 (NANTBIO, published 2022) are Kd values, retold here.

The test addresses T1, CD30 (analyte in SPR) (UniProt P28908 19-379, limits assumed).
T1 construct: also called Cluster of Differentiation 30; Ki-1
T1 sequence (looked up): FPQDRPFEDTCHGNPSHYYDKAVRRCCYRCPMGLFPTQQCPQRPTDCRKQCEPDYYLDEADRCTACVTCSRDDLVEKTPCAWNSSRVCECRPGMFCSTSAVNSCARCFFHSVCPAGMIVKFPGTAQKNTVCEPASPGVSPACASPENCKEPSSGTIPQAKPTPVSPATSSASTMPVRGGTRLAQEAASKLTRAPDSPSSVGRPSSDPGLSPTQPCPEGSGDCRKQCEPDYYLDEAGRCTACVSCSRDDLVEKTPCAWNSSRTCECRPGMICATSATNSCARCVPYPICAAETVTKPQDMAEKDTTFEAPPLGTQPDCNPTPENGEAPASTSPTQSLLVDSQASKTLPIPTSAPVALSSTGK
The test is described as follows: SPR, 25° C. pH 7.4, IgG1 captured on chip, CD30 as analyte, average value. From the text: Using the VH and VL domains as noted above, the inventors prepared various CD30 binding constructs, and exemplary results for scFv and IgG1 constructs are shown below.
For orientation: SPR reads the build-up and loss of mass on a sensor chip optically.

B1: anti-CD30 IgG1 (52-2) (antibody, V domains shown)
VH: EVQLVESGGGLVQPGGSLRLSCAASGFTFSSYYMHWVRQAPGKGLEWVSAISWSGGSTYYADSVKGRFTISRDNSKNTLYLQMNSLRAEDTAVYYCARDRFMPFIPNTLGFDVWGQGTLVTVSS
VL: DIQMTQSPSSLSASVGDRVTITCQASQDISNYLNWYQQKPGKAPKLLIYVASNLETGVPSRFSGSGSGTDFTFTISSLQPEDIATYYCQQDADVPLTFGQGTKVEIK
notes: also called aCD30 clone 52-2 IgG1
B1 gave a Kd of 3 nM.

B2: anti-CD30 IgG1 (52-38) (antibody, V domains shown)
VH: B1 VH with Y33W, G56D, F101S, M102A, P103T, F104W, I105Y, P106Y, N107L, T108G
VL: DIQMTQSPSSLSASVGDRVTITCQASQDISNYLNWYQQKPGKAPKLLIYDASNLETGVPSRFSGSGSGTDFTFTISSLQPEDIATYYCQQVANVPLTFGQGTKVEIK
notes: also called aCD30 clone 52-38 IgG1
Molecule B2 came in with a Kd of 2.5 nM.

B3: anti-CD30 IgG1 (52-5) (antibody, V domains shown)
VH: B1 VH
VL: B1 VL with V50D
notes: also called aCD30 clone 52-5 IgG1
B3: the affinity, expressed as Kd, was 22.3 nM.

One may read the Kd as the free concentration of one partner at which half of the binding sites on the other are occupied at equilibrium, for simple one-to-one binding. Read a low Kd as a tighter complex.
